Reference: the RNAGym collection of RNA variant scans (doi:10.1073/pnas.2313332121)

B1: TPR t1 (parent)
chain: GACCAAUCUGCCCUCAGAGCUCGAGAACAUCUUCGGAUGCAGAGGAGGCAGGCUUCGGUGGCGCGAUAGCGCCAACGUCCUCAACCUCCAAUGCAUCCCACCACAUGAUGAUGCCUGAAGAGCCUUGGUUUUUUG

Variants of: B1
Test: polymerase ribozyme fitness, log enrichment relative to wild type (log ratio); higher = more active; in vitro selection for triplet polymerase activity
Method in brief: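 The heterodimeric triplet polymerase ribozyme's subunits were each mutagenized into PCR-built libraries and transcribed. Every library was selected once, in triplicate, by annealing with a biotinylated primer, the partner subunit and triplets, incubating frozen at −7 °C, gel-excising extended constructs, capturing on streptavidin beads and running RT-PCR. Input and output libraries were Illumina-sequenced, with genotypes kept only at ≥10 input reads and ≥1 read per output. Fitness, from inverse-variance-weighted replicate averages, is the base-2 logarithm of genotype enrichment over wild-type enrichment.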

Variant	polymerase ribozyme fitness (log ratio)
GACCAAUCGGCCCUCAGAGCUCGAGAACAUCUUCGGAUGCAGAGGAGGCAGGCUUCGGUGGCGCGAUAGCGCCAACGUCCUCAACCUCCAAUACAUCCCACCACAUGAUGAUGCCUGAAGAGCCUUGAGUUUUUG [U9G G93A G128A U129G]	-1.96
GACCAAUCGGCCCUCAGAGCUCGAGAACAUCUUCGGAUGCAGAGGAGGCAGGCUUCGGUGUCGCGAUAGCGCCAACGUCCUCAACCUCCAAUGCAUCCCACCACAUGAUGAUGCCUGAAGAGCCUUGGUUUUUUG [U9G G61U]	0.804
GACCAAUCGGCCCUCAGAGCUCGAGAACAUCUUCGGAUGCAGAGGAGGCAGGCUUCGGUGACGCGAUAGCGCCAAGGUCCUCAACCUCCAAUGCAUCCCACCACAUGAUGAUGCCUGAAGAGCCUUGGUUUUUUG [U9G G61A C76G]	-4.18
GACCAAUCGGCCCUCAGAGCUCGAGAACAUCUUCGGAUGCAGAGGACGCAGGCUUCGGUGGCGCGAUAGCGCCAACGUCUUCAACCUCCAAUGCAUCCCACCACAUGAUGAUGCCUGAAGAGCCUUGGUUUUUUG [U9G G47C C80U]	-3.21
GACCAAUCGGCCCUCAGAGCUCGAGAACAUCUUCGGAUGCAGAGAAGGCAGGCUUCGGUGGCGCGAUAGCGCCAACGUCCUCAACCUCCAAUGCAGCCCACCACAUGAUGAUGCCUGAAGAGCCUUGGUUUUUUG [U9G G45A U96G]	-0.306
GACCAAUCGGCCCUCAGAGCUCGAGAACAUCUUCGGAUGCAGAGGAGGCAGGCUUCGGUGGCUCGAUAGCGCCAACGUCCUCAACCUCCAAUGCAUCCCACCACAUGAUGAUGCCUGAAGAGCCUUGGUUUUUUG [U9G G63U]	-0.815
GACCAAUCGGCCCUCAGAGCUCGAGAACAUCUUCGGAUGCAGAGGAAGCAGGCUUCGGUGGCGCGAUAGCGCCAACGUCCUCAACCUCCAAUGCAUCCCACCACAUGAUGAUGCCUGAAGAGCCUUGGUUUUUUG [U9G G47A]	-1.81
GACCAAUCGGCCCUCAGAGCUCGAGAACAUCUUCGGAUGCAGAGGAGACAGGCUUCGGUGGCGCGAUAGCGCCAACGUCCUCAACCUCCAAUGCAUCCCACCACAUGAUGGUGCCUGAAGAGCCUUGGUUUUUUG [U9G G48A A111G]	0.633
GACCAAUCGGCCCUCAGAGCUCGAGAACAUCUUCGGAUGCAGAGGAGGCAGGCUUCGGUGGCGCGAUAUCGCCAACGUCCUCAACCUCCAAUGCAUCCCACCACAUUAUGAUGCCUGAAGAGCCUUGGUUUUUUG [U9G G69U G107U]	-2.73
GACCAAUCGGCCCUCAGAGCUCGAGAACAUCUUCGGAUGCAGAGGAGGCAAGCUUCGGUGGCGCGAUAGCGCCAACGUCCUCAACCUCCAAUGCAUCCCACCACAUGAUGAUGCCUGAAGAGCCUUGGUUUUUUG [U9G G51A]	-1.96
GACCAAUCGGCCCUCAGAGCUCGAGAACAUCUUCGGAUGCAGAGGAGGCAGGCUUCGGUGGCGCGAUAGCGCCAACGUCCUCAACCUCCAAUGCAUCCCACCACAUGAUAAUGCCUGAAGAGCCUUGGUUUUUUG [U9G G110A]	-0.713
GACCAAUCGGCCCUCAGAGCUCGAGAACAUCUUCGGAUGCAGAGGAGGCAGGCUUCGGUUGCGCGAUAGCGCCAACACCCUCAACCUCCAAUGCAUCACACCACAUGAUGAUCCCUGAAGAGCCUUGGUUUUUUG [U9G G60U G77A U78C C98A G113C]	-5.81
GACCAAUCGGCCCUCAGAGCUCGAGAACAUCUUCGGAUGCAGAGGAGGCAGGCUUCGGUGGCGCGAUAGCGCCAACGUCCUCAACCUCCAAUGCAUCCCACCACAUUAUGAUGCCUGAAGAGCCUUGGUUUUUUG [U9G G107U]	-3.93
GACCAAUCGGCCCUCAGAGCUCGAGAACAUCUUCGGAUGCAGAGGAAGCAGGCUUCGGUGGCGCGAUAGCGCCAAAGUCCUGAACCUCCAAUGCAUCCCACCACAUGAUGAUGCCAGAAGAGCCUUGGUUUUUUG [U9G G47A C76A C82G U116A]	-2.05
GACCAAUCGGCCCUCAGAGCUCGAGAACAUCUUCGGAUGCAGAGGAGGCAGGCUUCGGUGGCUAGAUAGCGCCAACGUCCUCAACCUACAAUGCAUCCCACCACAUGAUGAUGCCUGAGGAGCCUUGGUUUUUUG [U9G G63U C64A C88A A119G]	-6.72
GACCAAUCGGCCCUCAGAGCUCGAGAACAUCUUCGGAUGCAGAGGAGGCAGGCUUCGGUGACGCGUUAGCGCCAACGUCCUAAACCUCCAAUGCAUCCCACCACAUGAUGAUGCCUGAAGAGCCUUGGUUUUUUG [U9G G61A A66U C82A]	-1.09
GACCAAUCGGCCCUCAGAGCUCGAGAACAUCUUCGGAUGCAGAGGAGGCAGGCUUCGGUGGCGCGAUAGCACCAACGUCCUCAACCUCCAAUGCAUCCCACCACAUGAUGAUGCCUGAAGAGCCUUGGUUUUUUG [U9G G71A]	-0.592
GACCAAUCGGCCCUCAGAGCUCGAGAACAUCUUCGGAUGCAGAGGAGGCAGGCUUCGGUGGCACGAUAGCGCCAACGUCCUCAACCUCCAAGGCAUCGCACCACAUGAUGAUGCGUGAAGAGCCUUGAUUUUUUG [U9G G63A U92G C98G C115G G128A]	-6.12
GACCAAUCGGCCCUCAGAGCUCGAGAACAUCUUCGGAUGCAGAGGAGUUAGGCUUCGGUGGCGCGAUAGCGCGAACGUCCUCAACCUCCAAUGCAUCCCACCACAUGAUGAUGCCUGAAUAGCCUUGGUUUUUUG [U9G G48U C49U C73G G120U]	0.0812
GACCAAUCGGCCCUCAGAGCUCGAGAACAUCUUCGGAUGCAGAGGAGGCAGGCUUCGGUGGCGCGAUAGCACCAACGUCUUCAACCUCCAAUGCAUCUCACCACAUGAUUAUGCCUGAAGAGCCUUGGUUUUUUG [U9G G71A C80U C98U G110U]	-6.92
GACCAAUCGGCCCUCAGAGCUCGAGAACAUCUUCGGAUGCAGAGGACGCAGGCUUCGGUCGCGCGAUAGCGCCAACGUCCUCCACCUCCAAUGCAUCCCACCACAUGAUGAUGCCUGAAGAGCCUUGGUUUUUUG [U9G G47C G60C A83C]	-3.63
